From the RNAGym collection of RNA variant scans (doi:10.1101/gr.219683.116)

B1: mRNA-splicing (parent)
chain: AGUUGCUGCUGGGAGCUCCAGCACAGUGAAAUGGACAGAAGGGCAGAGCAA

Variants of: B1
Assay: exon inclusion enrichment index; higher = more inclusion; WT1 exon 5 minigene, HEK293

| Variant | exon inclusion enrichment index |
| --- | --- |
| C6A U7A C9A U10A G28U | 0.147 |
| C6A U7A C9A U10A G28A | 0.174 |
| C6A U7A C9A U10A G28C | 0.528 |
| C6A U7A C9A U10A A30G A31C | 0.0339 |
| C6A U7A C9A U10A A30G A31U | 0.133 |
| C6A U7A C9A U10A A30G A31G | 0.168 |
| C6A U7A C9A U10A G11A | 1.96 |
| C6A U7A C9A U10A G11U | 2.89 |
| C6A U7A C9A U10A G11C | 3.21 |
| C6A U7A C9A U10A A30C A31C | 1.38 |
| C6A U7A C9A U10A A30C A31U | 0.986 |
| C6A U7A C9A U10A A30C A31G | 1.45 |
| C6A U7A C9A U10A C16G | 0.188 |
| C6A U7A C9A U10A C16A | 0.669 |
| C6A U7A C9A U10A C16U | 0.472 |
| C6A U7A C9A U10A C16A U17G | 0.312 |
| C6A U7A C9A U10A C16A U17C | 0.47 |
| C6A U7A C9A U10A C16A U17A | 0.501 |
| C6A U7A C9A U10A G13U A14U | 0.534 |
| C6A U7A C9A U10A G13U A14G | 0.553 |
| C6A U7A C9A U10A G13U A14C | 1.14 |
| C6A U7A C9A U10A G21U C22U | 0.172 |
| C6A U7A C9A U10A G21U C22G | 0.565 |
| C6A U7A C9A U10A G21U C22A | 0.136 |

| Variant | exon inclusion enrichment index |
| --- | --- |
| C6A U7A C9A U10A C16G U17C | 0.22 |
| C6A U7A C9A U10A C16G U17A | 0.533 |
| C6A U7A C9A U10A C16G U17G | 0.02 |
| C6A U7A C9A U10A A20U | 0.829 |
| C6A U7A C9A U10A A39U A40C | 1.19 |
| C6A U7A C9A U10A A39U A40U | 0.184 |
| C6A U7A C9A U10A A39U A40G | 0.0729 |
| C6A U7A C9A U10A C22A A23U | 0.354 |
| C6A U7A C9A U10A C22A A23G | 0.734 |
| C6A U7A C9A U10A C22A A23C | 1.39 |
| C6A U7A C9A U10A A31G U32G | 0.383 |
| C6A U7A C9A U10A A31G U32A | 2.95 |
| C6A U7A C9A U10A A31G U32C | 2.27 |
| C6A U7A C9A U10A A47U G48A | 0.579 |
| C6A U7A C9A U10A A47U G48U | 0.748 |
| C6A U7A C9A U10A A47U G48C | 0.497 |
| C6A U7A C9A U10A A45U G46A | 0.485 |
| C6A U7A C9A U10A A45U G46C | 0.614 |
| C6A U7A C9A U10A A45U G46U | 0.185 |
| C6A U7A C9A U10A A31C | 0.898 |
| C6A U7A C9A U10A A31G | 1.04 |
| C6A U7A C9A U10A A31U | 0.592 |
| C6A U7A C9A U10A A23G | 1.32 |
| C6A U7A C9A U10A A23U | 0.394 |

| Variant | exon inclusion enrichment index |
| --- | --- |
| C6A U7A C9A U10A A23C | 0.443 |
| C6A U7A C9A U10A G12U G13A | 0.633 |
| C6A U7A C9A U10A G12U G13U | 0.144 |
| C6A U7A C9A U10A G12U G13C | 1.06 |
| C6A U7A C9A U10A G12C G13C | 1.06 |
| C6A U7A C9A U10A G12C G13U | 0.355 |
| C6A U7A C9A U10A G12C G13A | 1.72 |
| C6A U7A C9A U10A C24U A25C | 2.5 |
| C6A U7A C9A U10A C24U A25G | 1.3 |
| C6A U7A C9A U10A C24U A25U | 0.761 |
| C6A U7A C9A U10A A29U A30G | 0.739 |
| C6A U7A C9A U10A A29U A30U | 0.198 |
| C6A U7A C9A U10A A29U A30C | 0.665 |
| C6A U7A C9A U10A G13U | 0.142 |
| C6A U7A C9A U10A G13C | 1.04 |
| C6A U7A C9A U10A G13A | 1.97 |
| C6A U7A C9A U10A G11U G12A | 0.701 |
| C6A U7A C9A U10A G11U G12C | 2.55 |
| C6A U7A C9A U10A G11U G12U | 1.53 |
| C6A U7A C9A U10A A20U G21A | 0.432 |
| C6A U7A C9A U10A A20U G21C | 0.712 |
| C6A U7A C9A U10A A20U G21U | 0.376 |
| C6A U7A C9A U10A G34U A35U | 0.0771 |
| C6A U7A C9A U10A G34U A35G | 0.134 |

| Variant | exon inclusion enrichment index |
| --- | --- |
| C6A U7A C9A U10A G34U A35C | 0.203 |
| C6A U7A C9A U10A C18U C19U | 0.00807 |
| C6A U7A C9A U10A C18U C19A | 0.046 |
| C6A U7A C9A U10A C18U C19G | 0.119 |
| C6A U7A C9A U10A A25C G26C | 1.25 |
| C6A U7A C9A U10A A25C G26A | 1.67 |
| C6A U7A C9A U10A A25C G26U | 1.21 |
| C6A U7A C9A U10A C24G | 0.763 |
| C6A U7A C9A U10A C24U | 0.161 |
| C6A U7A C9A U10A C24A | 0.545 |
| C6A U7A C9A U10A A23C C24G | 1.83 |
| C6A U7A C9A U10A A23C C24A | 0.907 |
| C6A U7A C9A U10A A23C C24U | 0.243 |
| C6A U7A C9A U10A C18U | 0.387 |
| C6A U7A C9A U10A C18G | 0.561 |
| C6A U7A C9A U10A C18A | 0.411 |
| C6A U7A C9A U10A A45G G46U | 0.543 |
| C6A U7A C9A U10A A45G G46C | 1.17 |
| C6A U7A C9A U10A A45G G46A | 2.3 |
| C6A U7A C9A U10A C44A A45G | 1.09 |
| C6A U7A C9A U10A C44A A45U | 1.71 |
| C6A U7A C9A U10A C44A A45C | 1.9 |
| C6A U7A C9A U10A G21C C22U | 0.813 |
| C6A U7A C9A U10A G21C C22A | 0.729 |

| Variant | exon inclusion enrichment index |
| --- | --- |
| C6A U7A C9A U10A G21C C22G | 1.63 |
| C6A U7A C9A U10A A35C C36A | 0.329 |
| C6A U7A C9A U10A A35C C36U | 0.0347 |
| C6A U7A C9A U10A A35C C36G | 0.657 |
| C6A U7A C9A U10A C19G A20U | 0.62 |
| C6A U7A C9A U10A C19G A20C | 1.03 |
| C6A U7A C9A U10A C19G A20G | 0.289 |
| C6A U7A C9A U10A G15U C16A | 0.381 |
| C6A U7A C9A U10A G15U C16U | 0.36 |
| C6A U7A C9A U10A G15U C16G | 0.298 |
| C6A U7A C9A U10A A23U C24G | 0.918 |
| C6A U7A C9A U10A A23U C24U | 0.0381 |
| C6A U7A C9A U10A A23U C24A | 0.207 |
| C6A U7A C9A U10A G28U A29G | 0.627 |
| C6A U7A C9A U10A G28U A29U | 0.122 |
| C6A U7A C9A U10A G28U A29C | 0.539 |
| C6A U7A C9A U10A A39G A40G | 0.0665 |
| C6A U7A C9A U10A A39G A40C | 1.22 |
| C6A U7A C9A U10A A39G A40U | 0.0506 |
| C6A U7A C9A U10A A20G G21U | 0.779 |
| C6A U7A C9A U10A A20G G21C | 0.891 |
| C6A U7A C9A U10A C24A A25C | 2.22 |
| C6A U7A C9A U10A C24A A25G | 0.796 |
| C6A U7A C9A U10A C24A A25U | 0.754 |

| Variant | exon inclusion enrichment index |
| --- | --- |
| C6A U7A C9A U10A C36U A37G | 0.602 |
| C6A U7A C9A U10A C36U A37C | 0.478 |
| C6A U7A C9A U10A C36U A37U | 0.411 |
| C6A U7A C9A U10A G34A A35G | 0.208 |
| C6A U7A C9A U10A G34A A35C | 0.52 |
| C6A U7A C9A U10A G34A A35U | 0.216 |
| C6A U7A C9A U10A G21U | 0.507 |
| C6A U7A C9A U10A G21A | 0.506 |
| C6A U7A C9A U10A G21C | 0.86 |
| C6A U7A C9A U10A A40G | 0.737 |
| C6A U7A C9A U10A A40C | 1.8 |
| C6A U7A C9A U10A A40U | 0.579 |
| C6A U7A C9A U10A A40G G41C | 2.13 |
| C6A U7A C9A U10A A40G G41U | 0.576 |
| C6A U7A C9A U10A A40G G41A | 0.23 |
| C6A U7A C9A U10A A31C U32C | 1.71 |
| C6A U7A C9A U10A A31C U32G | 1.02 |
| C6A U7A C9A U10A A31C U32A | 0.428 |
| C6A U7A C9A U10A A25G G26A | 2.29 |
| C6A U7A C9A U10A A25G G26U | 1.43 |
| C6A U7A C9A U10A A25G G26C | 2.3 |
| C6A U7A C9A U10A A35G | 0.217 |
| C6A U7A C9A U10A A35U | 0.119 |
| C6A U7A C9A U10A A35C | 0.237 |

| Variant | exon inclusion enrichment index |
| --- | --- |
| C6A U7A C9A U10A A47G G48A | 0.364 |
| C6A U7A C9A U10A A47G G48U | 0.0862 |
| C6A U7A C9A U10A A47G G48C | 0.251 |
| C6A U7A C9A U10A A39C A40U | 0.533 |
| C6A U7A C9A U10A A39C A40C | 1.65 |
| C6A U7A C9A U10A A39C A40G | 0.849 |
| C6A U7A C9A U10A A25U G26A | 0.899 |
| C6A U7A C9A U10A A25U G26C | 0.956 |
| C6A U7A C9A U10A A25U G26U | 0.734 |
| C6A U7A C9A U10A A45U | 1.14 |
| C6A U7A C9A U10A A45C | 0.979 |
| C6A U7A C9A U10A A45G | 1.6 |
| C6A U7A C9A U10A A35U C36A | 0.00157 |
| C6A U7A C9A U10A A35U C36G | 0.054 |
| C6A U7A C9A U10A A35U C36U | 0.00621 |
| C6A U7A C9A U10A A29G A30G | 0.495 |
| C6A U7A C9A U10A A29G A30C | 0.273 |
| C6A U7A C9A U10A A29G A30U | 0.163 |
| C6A U7A C9A U10A G11C G12A | 1.98 |
| C6A U7A C9A U10A G11C G12U | 1.91 |
| C6A U7A C9A U10A G11C G12C | 2.68 |
| C6A U7A C9A U10A A47C | 1.15 |
| C6A U7A C9A U10A A47G | 0.13 |
